Laboratory results: patent publication US20070184519A1 (published 2007)
Values belong to the binder of their own block, whether it stands above or below them.

Assays:
[1] = target: HLA-DR molecule DRB1*1101 (human); assay: competition vs 125I probe, purified HLA
[2] = target: HLA-DR molecule DRB1*0405 (human); assay: competition vs 125I probe, purified HLA
[3] = target: HLA-DR molecule DRB1*1302 (human); assay: competition vs 125I probe, purified HLA
[4] = target: HLA-DR molecule DRB1*0404 (human); assay: competition vs 125I probe, purified HLA
[5] = target: HLA-DR molecule DRB1*0901 (human); assay: competition vs 125I probe, purified HLA
[6] = target: HLA-DR molecule DRB4*0101 (human); assay: competition vs 125I probe, purified HLA
[7] = target: HLA-DR molecule DRB1*0401 (human); assay: competition vs 125I probe, purified HLA
[8] = target: HLA-DR molecule DRB5*0101 (human); assay: competition vs 125I probe, purified HLA
[9] = target: HLA-DR molecule DRB5*0101 (DR2w2a) (human); assay: inhibition of radiolabelled probe peptide binding to purified MHC class II
[10] = target: HLA-DR molecule DRB1*1101 (DR5w11) (human); assay: as above
[11] = target: DRB1*0301 (human, UniProt P01903 26-216, limits assumed); assay: competition vs 125I probe peptide, purified MHC II
[12] = target: DRB1*0802 (human, UniProt P01903 26-216, limits assumed); assay: competition vs 125I probe peptide, purified MHC II
[13] = target: DRB1*0901 (human, UniProt P01903 26-216, limits assumed); assay: competition vs 125I probe peptide, purified MHC II
[14] = target: DRB1*0701 (human, UniProt P01903 26-216, limits assumed); assay: competition vs 125I probe peptide, purified MHC II
[15] = target: DRB1*0101 (human, UniProt P01903 26-216, limits assumed); assay: competition vs 125I probe peptide, purified MHC II
[16] = target: DRB1*0401 (human, UniProt P01903 26-216, limits assumed); assay: competition vs 125I probe peptide, purified MHC II
[17] = target: DRB1*0405 (human, UniProt P01903 26-216, limits assumed); assay: competition vs 125I probe peptide, purified MHC II
[18] = target: DRB4*0101 (human, UniProt P01903 26-216, limits assumed); assay: competition vs 125I probe peptide, purified MHC II
[19] = target: DRB1*0404 (human, UniProt P01903 26-216, limits assumed); assay: competition vs 125I probe peptide, purified MHC II
[20] = target: DRB5*0101 (human, UniProt P01903 26-216, limits assumed); assay: competition vs 125I probe peptide, purified MHC II
[21] = target: DRB1*1302 (human, UniProt P01903 26-216, limits assumed); assay: competition vs 125I probe peptide, purified MHC II
[22] = target: DRB1*1101 (human, UniProt P01903 26-216, limits assumed); assay: competition vs 125I probe peptide, purified MHC II
[23] = target: HLA-DR molecule DRB1*0901 (DR9) (human); assay: inhibition of radiolabelled probe peptide binding to purified MHC class II
[24] = target: HLA-DR molecule DRB1*1302 (DR6w19) (human); assay: as above
[25] = target: HLA-DR molecule DRB4*0101 (DRw53) (human); assay: as above

Binder: GLRSLTTLNRALGAQ [EPO 101 analog GLRSLTTLNRALGAQ]
IC50 [1]: 0.97 nM
IC50 [6]: 167 nM
IC50 [7]: 28 nM
IC50 [5]: 337 nM
IC50 [8]: 0.89 nM

Binder: DTFRKLDRVYSNFLR
IC50 [11]: 2810 nM
IC50 [12]: 87 nM

Binder: DTPRKLFRVYSNFLR
IC50 [13]: 28 nM
IC50 [14]: 87 nM
IC50 [15]: 13 nM
IC50 [16]: 40 nM
IC50 [17]: 6.9 nM
IC50 [18]: 418 nM

Binder: DTFRKLFRVYSNDLR
IC50 [14]: 817 nM
IC50 [17]: 487 nM
IC50 [19]: 812 nM

Binder: DTFRKQFRVYSNFLR
IC50 [14]: 3000 nM
IC50 [20]: 4.9 nM
IC50 [19]: 270 nM
IC50 [12]: 81 nM

Binder: DTKRKLFRVYSNFLR
IC50 [15]: 13 nM
IC50 [11]: 6490 nM
IC50 [21]: 4.9 nM
IC50 [18]: 738 nM

Binder: DTGRKLFRVYSNFLR
IC50 [14]: 312 nM
IC50 [16]: 46 nM
IC50 [19]: 175 nM
IC50 [21]: 7.5 nM
IC50 [12]: 53 nM

Binder: GLRSLTTLLDALGAQ [EPO 101 analog peptide GLRSLTTLLDALGAQ (SEQ ID NO: 193)]
IC50 [23]: 277 nM
IC50 [24]: 953 nM

Binder: GLRSLTTLLGALGAQ [EPO 101 analog peptide GLRSLTTLLGALGAQ (SEQ ID NO: 194)]
IC50 [9]: 294 nM
IC50 [10]: 2.6 nM
IC50 [25]: 13 nM
IC50 [24]: 858 nM

Now from value to binder:

IC50 [1]: 1.4 nM
IC50 [2]: 719 nM
IC50 [3]: 440 nM
IC50 [4]: 13 nM
IC50 [5]: 2230 nM
Binder: GLRSLTTLSRALGAQ [EPO 101 analog GLRSLTTLSRALGAQ]

IC50 [9]: 13 nM
IC50 [10]: 0.79 nM
Binder: GLRSLTTRLRALGAQ [EPO 101 analog peptide GLRSLTTRLRALGAQ (SEQ ID NO: 192)]

IC50 [16]: 50 nM
Binder: DTFRKLFRVYSNFGR

IC50 [22]: 5 nM
IC50 [15]: 62 nM
IC50 [16]: 91 nM
IC50 [19]: 922 nM
Binder: DTFRKNFRVYSNFLR
